The target of test [1] is Rs-AFP1 (Raphanus sativus antifungal protein 1) (Raphanus sativus).
Test [2] has as its target Rs-AFP2 (Raphanus sativus antifungal protein 2) (Raphanus sativus).

For four substances, antifungal activity on Fusarium culmorum after digestion with the protease results are on record in patent US5824869.

Turning to “proteinase K (from UniProt P06873) (enzyme)”, the antifungal activity on Fusarium culmorum after digestion with the protease in test [1] and in test [2] was 10 fold throughout.
Take chymotrypsin (enzyme): the antifungal activity on Fusarium culmorum after digestion with the protease in test [1] and in test [2] was 10 fold each time.
Take pronase E (enzyme): the antifungal activity on Fusarium culmorum after digestion with the protease in test [1] and in test [2] was 10 fold in each case.
Consider trypsin (enzyme), for which the antifungal activity on Fusarium culmorum after digestion with the protease in test [1] and in test [2] was 10 fold each time.
